Test results published in patent US6013499, “Rho target protein kinase p160” (Kirin Beer Kabushiki Kaisha, dated 2000).

Target: RhoA fused to LexA DNA-binding domain (yeast two hybrid) (human)
Assay: yeast two hybrid, β-galactosidase activity

B1: M2-6 (974-1024) fused to the VP16-activation domain (yeast two hybrid) (other)
chain: KLEKEEEISNLKAAFEKNINTERTLKTQAVNKLAEIMNRKDFKIDRKKANT
B1: no binding.

B2: M2-9 (906-1004) fused to the VP16-activation domain (yeast two hybrid) (other)
chain: RGLLEEQYFELTQESKKAASRNRQEITDKDHTVSRLEEANSMLTKDIEILRRENEELTEKMKKAEEEYKLEKEEEISNLKAAFEKNINTERTLKTQAVN
B2: no binding.
